The text below walks through data of US20120207760A1 (THERACLONE SCIENCES, published 2012).

B1: TCN-547 (5092_F11) (antibody, V domains shown)
VH: QVQLQESGPGLVKPSQTLSLTCTVSGDSISSVDHYWSWIRQHPVKGLEWIGFMYYSASTYYNPSLKSRVTISTDTSKNQFSLRLSSVTAADTAVYYCARGTCAGDCSLHYYYYGLDVWGQGRTVTVSS
VL: DIQMTQSPSSLSASVGDRVTITCRASQSISSYLNWYQHKPGKAPKVLMYAVSILQSGVPSRFSGSGSGADFTLTISSLQPEDFATYYCQQSYSSPLTFGGGTKVEIK
B2: TCN-533 (5256_A17) (antibody, V domains shown)
VH: QVQLVQSGADVKKPGSSVTVSCKASGGSFSNYGINWVRQAPGQGLEWMGGIIPLINAPNYAPKFQGRVTITADMFSNIVSLQLTSLRTDDTAVYYCARRKMTTAIDYWGQGTLVTVSS
VL: QPVLSQPPSASASLGASVTLTCTLSSGFDNYQVAWYQQRPGKGPRFVMRVGNGGNVASKGDGIPDRFSVSGSGLNRYLTIKNIQEDDESDYYCGADHGSGNNFVSPYVFGGGTKLTVL
B3: TCN-563 (5237_B21) (antibody, V domains shown)
VH: QVQLAQSGAEVKRPGSSVKVSCTASGGIFRKNAISWVRQAPGQGLEWMGGIIAVFNTANYAQKFQGRVKITADESGNTAYMELSSLRSDDTAVYYCASHPKYFYGSGSYPDFWGQGTLVTVSS
VL: QSALTQPRSVSGSPGQSVTISCTGSSSDVGASNSVSWYQQHPGKAPKLVIYDVTERPSGVPHRFSGSKSGNTASLTVSGLQPEDEADYFCCAYGGKYLVVFGGGTKVTVL
B4: TCN-544 (5082_A19) (antibody, V domains shown)
VH: QVQLQESGPGLVKPSETLSLTCTVSRGSIGHYFWSWIRQPPGKGLEWIGYISYSGSTKYNPSLRSRVTISVDTSKNQFSLNLNSVTATDTALYYCAREDYDILTGAGPGMEVWGQGTTVTVSS
VL: QSMLTQPPSASGTPGQRVTISCSGSSSNIGSNTVNWFKHLPGTAPKLLIYRNDLRPSGVPDRFSGSKSGTSASLAISGLQSEDEADYYCATWDDSLNGFYVFGTGTKVTVL
B5: TCN-530 (5248_H10a) (antibody, V domains shown)
VH: QVQLVQSGAEVRKPGSSVKVSCKASGGPFMSYAIGWVRQAPGQGLEWMGGINPVFGRPHYAQKFQGRVTIATDDSTKTSYMELSSLTSEDTGMYYCASRYSRSSPGTFESWGQGTLVTVSS
VL: EIVMTQFPATLSVSPGERVTLSCRASQSVSNNLAWYQQKPGQPPRLLIYDASTRATGVPAKFSGTGSGTEFTLSISSLQSEDFAVYYCQQYHNWPPSYSFGLGTKLEIK
B6: TCN-531 (5091_H13) (antibody, V domains shown)
VH: EVQLVESGGDLVQPGRSLKLSCTGSGFTFGDYGVTWVRQAPGKGLEWVGFIRTRPWGGTADTAASVKGRFTISRDDSKSLAYLQMNSLKTEDTAVYYCCRDAPPNVEVASMTNWYFDLWGRGTLVTVSS
VL: DIQLTQSPSSLSASVGDRVTITCRASQGILNCLAWYQQKPGKVPNLLMYAASTLQSGVPSRFSGSGFGTDFTLTISSLQPEDVATYYCQTYGGVSTFGGGTKVEIR
B7: TCN-540 (5060_F05) (antibody, V domains shown)
VH: QVQLVQSGGGVVQPGRSLRLSCAASGFTFSSYAMHWVRQAPGKGLEWVAIISYDGNDQYYTDSVKGRFTISRDSSKVYLQMHRLRPEDTAVYYCAKEFETSGYFHGSFDYWGQGILVTVSS
VL: QSALTQPASVSGSPGQSITISCTGTSSDVGGYNYVSWYQQHPGKAPKLLIYEVTNWPSGVSNRFSGSKSGNTASLTISGLQAEDEADYYCSSYAGSSTWVFGGGTRVTVL
B8: TCN-546 (5089_L08) (antibody, V domains shown)
VH: QVQLQQWGAGLLKPSETLSLTCGVYGGSLSDYYWSWIRQPPGKGLEWIGEINHSGGTNYNPSLKRRVTISVDTSKKQFSLKMNSVTAADTAVYYCARGTDPDTEVYCRAGNCAAFDFWGQGTLVTVSS
VL: EIVLTQSPGTLSLSPGERATLSCRASHFVIGRAVAWYQQKPGQAPRLLIYGASSRATGIPDRFSGSGSGTDFTLTISRLETEDFAVFYCQHYGSSPRYAFGQGTKLEIK
B9: TCN-523 (5248_A17) (antibody, V domains shown)
VH: QVQLVQSGAEVKKPGSSVKVSCKASGGSFSNYAFSWVRQAPGQGLEWMGGTIPLLGTTNYAQKFQGRVTISADQFTSTAYMELGSLRSEDTAVYYCTRRKMTTAFDSWGQGTLVTVSS
VL: QPVLTQPPSASASLGASVTLTCTLSSAYSNYKVDWYQQRPGKGPRFVMRVGTGGIVGSKGDGIPDRFSVLGSGLNRYLTIKNIQEEDESDYHCGADHGSGSNFVSPYVFGGGTKLTVL
B10: TCN-539 (5056_A08) (antibody, V domains shown)
VH: QVQLVESGGGVVQPGRSLRLSCAASEITFITYAMHWVRQAPGKGLEWVALISDDGSNKFYADSVKGRFTISRDNSKNTLYLQMNSLRAEDTAAYYCAREGVYFDSGTYRGYFDYWGQETLVTVSS
VL: EIVLTQSPATLSLSPGERATLSCRASQSVSSYLAWYQQKPGQAPRLLIYDASNRATGIPARFSGSGSGTDFTLTISSLEPEDFAVYYCQQRSHWPPITFGQGTRLEIK
B11: TCN-536 (5095_N01) (antibody, V domains shown)
VH: QVQLQQWGAGLLKPSETLSLTCAVYGGSFSVSGYYWSWIRQPPGRGLEWIGEISHGGSTNYNPSLKSRVTISVDTTKNQFSLRLSSVTAADTAVYYCARGTDPDTEVYCRVGNCAAFDYWGQGSLVTVSS
VL: EIILAQSPGTLSLSPGERATLSCRASQFVSTRSLAWYQQRPGQAPRLLIYGASSRATGIPDRFSGSGSGTDFTLTISRLEPEDFAVYYCQHYGYSPRYAFGQGSKVEIK
B12: TCN-532 (5262_H18) (antibody, V domains shown)
VH: QVQLQESGPGLVKPSETLSLTCTVSGGSVSSETYYWSWIRQPPGKGLEWIGYIYYIGNTDYRPSLKSRVTISLDTSKNQFSLKLSSVTAADTAVYYCARGAYYDSSGYPAFYIWGQGTMVTVSS
VL: QSVLTQPPSVSGAPGQRVTISCTGSSSNIGSDYDVHWYKQLPGTAPKLLIFGNSNRPSGVPDRFSGSKSGTSASLAITGLQAEDEADYYCQSYDSSLSGFHVFGSGTKVTVL
B13: TCN-521 (3280_D18) (antibody, V domains shown)
VH: EVQLVQSGGGLVQPGGSLRLACVVSGFTVTSNYITWVRQAPGKGLEWVSVIYSHGRAYYSASVNGRFTISRHTSKNTVYLEMNSLRPEDTAVYYCAGGGLVGGYDEYFFDYWGQGTLATVSS
VL: ETVLTQSPGTLSLTPGERATLSCRVGQSVSGSHLAWYQQKPGQAPRLLIYGASSRATGIPDRFGGSVSGTDFTLTISRLEPEDSAVYYCQQYGDSRYTFGQGTKLEIK
B14: TCN-534 (5249_B02) (antibody, V domains shown)
VH: QVQLVQSGAEVKKPGSSVKVSCRESGGTFNGYTITWVRQAPGQGLEWMGGIIPMMGTVNYAQKLQGRVTITTDYFTKTAYMDLNNLRSEDTAMYYCVKIRYTGQQLLWGQGTLVTVSS
VL: DIQMTQSPSTLSASIGDRVTITCRASQSIASWLAWYQQKPGKAPKLLIYEAVNLESGVPSRFSGSGSGTDFTLTISSLQPDDFATYFCQHYGTISQTFGGGTKVEIK
B15: TCN-542 (5079_A16) (antibody, V domains shown)
VH: QVQLQESGPGLVKPSQTLSLTCTVSGGSISSGNYYWNWVRQHPGKGLEWIGYIYYRGSTFYNPSLKSRVTISIDTSKNQFSLRLSSVTAADTAVYYCAKDTRSSLDNYQYGMDVWGQGTTVTVSS
VL: QTVVTQEPSLTVSPGGTVTLTCASSTGAVTSSYFPNWFQQKPGQAPRPLIYSTTIRHSWTPARFSGSLLGGKAALTLSGVQPEDEADYYCLLYSGGDPVAFGGGTKLTVL
B16: TCN-528 (5087_P17) (antibody, V domains shown)
VH: QVQLVQSGSEVKKPGASVKVSCKASGYTFTNYDINWIRQAPGQGLEWMGWINPNSGTTGSAQRFQGRVTITVDTSITTVYMELSSLRSDDTAIYYCARGRELLRLQHFLTDSQSERRDCFDPWGQGTLVTVSS
VL: DIQMTQSPSSLSASVGDRVTITCRANQDIGIYLNWYQQNPGKVPKLLLHGASSLQGGVPSRFSASGSGTDFTLTIHSLQPEDLATYYCQQSRRLPYTFGQGTRVELK
B17: TCN-543 (5081_G23) (antibody, V domains shown)
VH: QVHLVQSGAEVRKPGDSVKVSCKTSGYTFSTYPVAWVRQVPGQGLEWMGWISTYNGNTNFAQNFQGRVTLTTDTTTNTAYMEVRSLKFDDTAVYYCARVEGSYRDFWNNQNRFDPWGQGTLVTVSS
VL: SYVLTQPPSVSVAPGQTARISCGGSNIGGKSVHWYQQKPGQAPVLVVYDDSGRPSGIPERFSGSNSGDTATLTISRVEAGDEADYFCQVWDNFGGVFGTGTKVTVL
B18: TCN-527 (5086_C06) (antibody, V domains shown)
VH: QVQLQESGPGLVKPSETLSLNCAVSGGSISNYYWSWIRQPPGKGLEWIGYISYNGRPKYNPSLTSRVTISVDTSKDQFSLELRSVTAADTALYYCARETRFGELLSPYDAFEIWGQGTMVTVSS
VL: DIQMTQSPSSLSASVGDRVTMTCRASQNIRSYLNWYQQRPGTAPKLLIYAASTLHSGVPSRFSGGGSGTDFTLTINNLQPEDFASYYCQQSYDNPQTFGQGTKVEIK
B19: TCN-526 (5084_C17) (antibody, V domains shown)
VH: EVLMVESGGGLVQPGGSVRLSCVASGFSFSSHWMTWVRQAPGKGLEWVANIEDDGGDKYYVDSVKGRFIISRDNAKNSVYLQMNSLRAEDTAVYFCARGSGSSDRSDYDPHYYYYLDVWGKGATVTVSS
VL: DIQLTQSPSSLSASVGDRVTITCRASQSISRYLNWYQQKPGKAPKLLLFAASTLLDGVPSRFSGSGSGTDFTLTISSLQPEDFATYYCQRNHSPSWTFGQGTRVEIK
B20: TCN-545 (5082_I15) (antibody, V domains shown)
VH: QVQLQQWGAGLLKPSETLSLSCAVFGGSFSDYYWTWIRQPPGKGLEWIGEIKHSGRTNYNPSLESRVTISVDTSKNQFSLKLSSVTAADTAIYYCARGTDPDTEGYCRSGSCSAFDFWGQGTLVTVSS
VL: EIVLTQSPGTLSLSPGERATLSCRASHFVNYRSLAWYQQTPGQVPRLLIYGASTRATGIPDRFSGSGSGTDFTLTISRLEPEDFAVYFCQQYGGSPRYTFGQGTRLEIK
B21: TCN-535 (5246_P19) (antibody, V domains shown)
VH: QVQLVQSGSEVKKPGTSVKVSCTASGSVFTNYGISWVRQAPGQGLEWMGGIIPLFGAAKYAQKFQGRVTITADESTKTVYMELSRLTSKDTAIYFCAKAPRVYEYYFDQWGQGTPVTVSS
VL: EIVLTQSPGTLSLSPGERATLSCRASQSVSSSQLAWYQQKPGQAPRLIIYGASTRATGIPDRFSGSGSGTDFTLTIGRLEPEDFAVFFCQQYSTSPPTFGQGTKVDFK

In the assay the target is Hemagglutinin of influenza A/Japan/305/57 (H2N2), on inactivated whole virions (Influenza A virus A/Japan/305/1957 …, UniProt P03451 16-562). As to the kind of experiment: ELISA, B cell culture supernatant on inactivated whole virions.
Molecule B1 showed an OD450 of 0.07 OD450.

As for B2, the OD450 stood at 1.1 OD450.

In the case of B3, the OD450 stood at 1.23 OD450.

In turn, B4 gave an OD450 of 0.07 OD450.

In the case of B5, the OD450 amounted to 1.73 OD450.

Consider B6, for which the OD450 is 0.67 OD450.

The molecule B7 showed an OD450 of 3.62 OD450.

Consider B8, for which the OD450 amounted to 0.06 OD450.

Regarding B9, the OD450 is 1.62 OD450.

Regarding B10, the OD450 stood at 0.06 OD450.

B11: the OD450 was determined as 0.08 OD450.

The molecule B12 came in with an OD450 of 0.07 OD450.

The molecule B13 had an OD450 of 3.1 OD450.

For B14, the OD450 came to 2.56 OD450.

B15 registered an OD450 of 0.08 OD450.

With B16, the OD450 worked out at 2.82 OD450.

As for B17, the OD450 was determined as 3.62 OD450.

B18 had an OD450 of 1.48 OD450.

In turn, B19 gave an OD450 of 0.07 OD450.

Molecule B20 came in with an OD450 of 0.06 OD450.

Take B21: the OD450 is 1.46 OD450.
